These results are taken from publication PMC12097149.

The target of experiment [1] is mouse CARMIL2 Q538E (untagged, CARMIL2^QE) (mouse). The experiment can be described thus: co-IP; Immunoprecipitation with anti-CARMIL2 (EM-53) from lysates of short-term expanded mouse CD8+ (OT-I) and CD4+ T cells (Carmil2^QE, Carmil2^QE Cd28-/-), immunoblot with anti-CARMIL2 and anti-CARD11; cells untreated or treated with pervanadate for 2 and 5 min at 37°C.
Experiment [2] concerns the target mouse CARMIL2 Q538E tagged with a Twin-Strep-tag at the N terminus (CARMIL2^QE-OST) (mouse). The experiment is described as follows: affinity purification with mass spectrometry; OST-tagged CARMIL2 purified on Strep-Tactin Sepharose beads from lysates of short-term expanded mouse CD4+ T cells, untreated or treated with pervanadate for 2, 5 and 10 min; label-free quantitative MS, interaction stoichiometries.

B1: mouse CARD11 (natural protein)
chain: MPGGGPAMDDYMETLKDEEEALWDNVECNRHMLSRYINPAKLTPYLRQCKVIDEQDEDEVLNAPMLPSKINRAGRLLDILHTKGQRGYVVFLESLEFYYPELYKLVTGKEPTRRFSTIVVEEGHEGLTHFLMNEVIKLQQQVKAKDLQRCELLAKSRQLEDEKKQLSLIRVELLTFQERYYKMKEERDSYNDELVKVKDDNYNLAMRYAQLSEEKNMAVMRSRDLQLEIDQLKHRLNKMEEECKLERNQSLKLKNDIENRPRKEQVLELERENEMLKTKIQELQSIIQAGKRSLPDSDKAILDILEHDRKEALEDRQELVNKIYNLQEEVRQAEELRDKYLEEKEDLELKCSTLGKDCEMYKHRMNTVMLQLEEVERERDQAFHSRDEAQTQYSQCLIEKDKYRKQIRELEEKNDEMRIEMVRREACIVNLESKLRRLSKDNGSLDQSLPRHLPATIISQNLGDTSPRTNGQEADDSSTSEESPEDSKYFLPYHPPRRRMNLKGIQLQRAKSPISMKQASEFQALMRTVKGHEEDFTDGSPSSSRSLPVTSSFSKMQPHRSRSSIMSITAEPPGNDSIVRRCKEDAPHRSTVEEDNDSCGFDALDLDDENHERYSFGPPSIHSSSSSHQSEGLDAYDLEQVNLMLRKFSLERPFRPSVTSGGHVRGTGPLVQHTTLNGDGLITQLTLLGGNARGSFIHSVKPGSLAERAGLREGHQLLLLEGCIRGERQSVPLDACTKEEARWTIQRCSGLITLHYKVNHEGYRKLLKEMEDGLITSGDSFYIRLNLNISSQLDACSMSLKCDDVVHVLDTMYQDRHEWLCARVDPFTDQDLDTGTIPSYSRAQQLLLVKLQRLVHRGNREEADSAHHTLRSLRNTLQPEEMLSTSDPRVSPRLSRASFFFGQLLQFVSRSENKYKRMNSNERVRIISGSPLGSLSRSSLDATKLLTEKHEELDPENELSRNLTLIPYSLVRAFHCERRRPVLFTPTMLAKTLVQKLLNSGGAMEFTICKSDIVTRDEFLRKQKTETIIYSREKNPNTFECIVPANIEAVAAKNKHCLLEAGIGCVRDLIKCKVYPIVLLIRVSEKNIKRFRKLLPRPETEEEFLRVCRLKEKELEALPCLYATVEAEMWSSVEELLRVLKDKIVEEQRKTIWVDEDQL
On to B1, for which, in experiment [1], the fold lower level of complexes in unstimulated Carmil2^QE Cd28-/- CD4+ T cells than in unstimulated Carmil2^QE CD4+ T cells turned out to be 2 fold. In experiment [2], this molecule returned a fold increase of the interaction stoichiometry after T cell activation over that in resting cells of 7 fold and a percent of the available CARMIL2^QE-OST molecules complexed to CARD11 after 2 min of activation of 12%.
